Measured values published in US20240029819A1, “AGENTS BINDING MODIFIED ANTIGEN PRESENTED PEPTIDES AND USE OF SAME” (Yeda Research and Development Co. Ltd., priority 2020, published 2024).
Entries after “also recorded” stand apart in the source; their conditions may differ. Where no end group is shown, it is not given here. [ ]: non-standard residue; d: D form. N(d) = deamidated Asn

Target: HLA-A0201 (Homo sapiens, UniProt P04439, D140Y/D185E/D98H/E176V/E277Q/G131W/G231S/I119V/I121R/I166T/I218V/L300P/L318F/N151K/N90K/P208A/P217A/Q86G/Q94H/R138H/R169H/T345S)
Assay: ProImmune Module 2 REVEAL in-vitro MHC-peptide binding assay
Settings: synthesized modified peptides and unmodified counterparts; score relative to positive control peptide; FIG. 4F
Experimental: ProImmune binding assay—ProImmune (www(dot)proimmune(dot)com) Module 2 REVEAL Binding Assay measure the yield of correctly conformed MHC-peptide complex following incubation of the recombinant MHC allele and peptide of interest using a conformational-dependent antibody in an immunoassay. Each peptide is given a score relative to the positive control peptide, which is a known T cell epitope.
To validate that the modified peptides identified with PROMISE are able to bind to HLA, the subset of modified peptides that were identified in immunopeptidomics of an HLA-A0201 cell line and that were not identified in IEDB in their unmodified form were filtered (FIG. 4D). Further, whether the difference in the detection of the modified peptides and their unmodified counterparts was due to their relative ability to bind HLA-A0201 was examined. […] Methylation of K-6 removes its positive charge and thereby alleviates electrostatic repulsion. In addition, the methyl group is nicely packed into the hydrophobic MHC groove. […] To assess the role of peptide modification in altering MHC binding 6 modified peptides and their unmodified counterparts were synthesized and their binding was examined using a binding assay (ProImmune). In these setting 4 of the synthesized modified peptides were confirmed as HLA binders.

| Substance | binding to HLA-A0201 of the modified peptide compared with its matching unmodified form |
| --- | --- |
| K(me)VMDEVAGI (KVMDEVAGI; not fully specified (residue 1); printed as K(me)VMDEVAGI) | bind the HLA-A0201 more strongly than the unmodified form |
| TLIESK(me)LPV (TLIESKLPV; not fully specified (residue 6); printed as TLIESK(me)LPV) | bind more strongly in its modified form; also recorded: bind the HLA-A0201 more strongly than the unmodified form |
| TLN(d)SLIYTL (TL[N(d)]SLIYTL) | bind more strongly in its unmodified form |
| TLE(me)NCLLPD(me) (TLENCLLPD; not fully specified (residues 3, 9); printed as TLE(me)NCLLPD(me)) | bound the MHC only in its modified form |
